Numbering of substitutions follows the chain as printed. Names and notes keep the numbering of the source.
B1: IL-18 variant G3L, E6Y, D54T, T63S, N91Y, R104Q (ligand)
chain: YFLKLYSKLSVIRNLNDQVLFIDQGNRPLFEDMTDSDMRDNAPRTIFIISMYKTSQPRGMAVSISVKSEKISTLSSENKIISFKEMNPPDYIKDTKSDIIFFQQSVPGHDNKMQFESSSYEGYFLASEKERDLFKLILKKEDELGDRSIMFTVQNED
B2: IL-18 variant G3D, E6G, K53G, D54A, T63S, N91Y, R104Q (ligand)
chain: B1 chain with L3D, Y6G, K53G, T54A
B3: IL-18 variant G3P, E6H, N91L (ligand)
chain: B1 chain with L3P, Y6H, T54D, S63T, Y91L, Q104R
B4: IL-18 variant G3L, E6S, D54T, T63S, N91Y, R104Q (ligand)
chain: B1 chain with Y6S
B5: IL-18 variant G3P, E6K, D54Y, S55P, T63S, N91S, R104Q (ligand)
chain: B1 chain with L3P, Y6K, T54Y, S55P, Y91S
B6: IL-18 variant G3Q, E6H, K53T, D54S, S55Y, N91Y, R104K (ligand)
chain: B1 chain with L3Q, Y6H, K53T, T54S, S55Y, S63T, Q104K
B7: IL-18 variant G3P, E6K, D54Y, S55P, T63S, N91S, R104Q, Q154R (ligand)
chain: B1 chain with L3P, Y6K, T54Y, S55P, Y91S, Q154R
B8: IL-18 variant G3P, E6K, D54Y, S55P, Q56H, T63S, N91S, R104Q (ligand)
chain: B1 chain with L3P, Y6K, T54Y, S55P, Q56H, Y91S

Biological target: T1, IL-18 receptors on HEK-Blue IL-18 reporter cells (UniProt Q13478 19-541; O95256 20-599, limits assumed)
T1 sequence (looked up) 1: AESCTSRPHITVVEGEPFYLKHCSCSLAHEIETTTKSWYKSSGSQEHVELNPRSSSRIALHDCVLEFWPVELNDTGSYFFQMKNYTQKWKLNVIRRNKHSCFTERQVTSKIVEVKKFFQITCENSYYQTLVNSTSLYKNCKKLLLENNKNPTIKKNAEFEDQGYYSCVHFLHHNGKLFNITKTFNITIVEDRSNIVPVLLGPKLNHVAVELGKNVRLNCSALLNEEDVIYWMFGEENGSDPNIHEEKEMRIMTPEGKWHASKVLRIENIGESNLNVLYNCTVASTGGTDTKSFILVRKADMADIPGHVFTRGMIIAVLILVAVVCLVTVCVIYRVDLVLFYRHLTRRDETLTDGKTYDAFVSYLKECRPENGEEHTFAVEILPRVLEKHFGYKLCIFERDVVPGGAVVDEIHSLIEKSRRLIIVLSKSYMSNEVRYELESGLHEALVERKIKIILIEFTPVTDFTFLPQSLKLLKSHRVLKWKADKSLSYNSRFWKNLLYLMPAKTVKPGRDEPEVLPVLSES
T1 sequence (looked up) 2: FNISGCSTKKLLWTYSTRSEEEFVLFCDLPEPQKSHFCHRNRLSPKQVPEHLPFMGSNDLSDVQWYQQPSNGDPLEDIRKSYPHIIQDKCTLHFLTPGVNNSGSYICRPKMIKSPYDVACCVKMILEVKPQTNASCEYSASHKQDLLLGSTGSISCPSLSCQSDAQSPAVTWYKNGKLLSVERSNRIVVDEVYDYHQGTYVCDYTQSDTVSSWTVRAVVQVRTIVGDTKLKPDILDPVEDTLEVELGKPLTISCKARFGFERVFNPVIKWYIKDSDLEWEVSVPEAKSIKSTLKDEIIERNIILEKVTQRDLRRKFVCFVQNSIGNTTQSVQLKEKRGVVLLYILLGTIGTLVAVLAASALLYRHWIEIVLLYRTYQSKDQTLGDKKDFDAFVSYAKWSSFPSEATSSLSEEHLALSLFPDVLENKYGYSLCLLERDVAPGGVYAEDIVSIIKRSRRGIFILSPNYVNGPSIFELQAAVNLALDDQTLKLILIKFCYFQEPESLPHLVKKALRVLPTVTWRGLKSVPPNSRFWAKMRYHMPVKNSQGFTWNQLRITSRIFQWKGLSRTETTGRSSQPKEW
Test: cell-based or functional assay

Binder | Activity, No BP, DF-100000 | Activity, No BP, DF-500000 | Activity, No BP, DF-2500000
B1 | 2.14 | 2.02 | 1.69
B2 | 1.36 | 0.72 | 0.21
B3 | 1.45 | 0.9 | 0.29
B4 | 2.11 | 1.98 | 1.73
B5 | 1.75 | 1.32 | 0.72
B6 | 1.52 | 0.95 | 0.31
B7 | 1.49 | 0.94 | 0.36
B8 | 1.63 | 1.1 | 0.53

Biological target: T2, IL-18 binding protein (IL-18BP) (UniProt O95998 31-194)
T2 sequence (looked up): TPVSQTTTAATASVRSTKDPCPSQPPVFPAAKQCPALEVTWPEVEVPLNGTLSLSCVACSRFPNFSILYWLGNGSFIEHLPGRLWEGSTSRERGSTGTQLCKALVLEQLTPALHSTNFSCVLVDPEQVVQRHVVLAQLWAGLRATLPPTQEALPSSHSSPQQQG
Test: cell-based or functional assay

Binder | Activity, +100 nM BP, DF-1000002 | Activity, +100 nM BP, DF-5000003 | Activity, +100 nM BP, DF-25000004 | Ratio (-BP/+BP), DF-1000005 | Ratio (-BP/+BP), DF-5000006 | Ratio (-BP/+BP), DF-25000007
B1 | 2.04 | 1.92 | 1.45 | 1.05 | 1.05 | 1.17
B2 | 1.33 | 0.73 | 0.19 | 1.02 | 0.98 | 1.14
B3 | 1.52 | 0.93 | 0.33 | 0.95 | 0.97 | 0.87
B4 | 2.06 | 1.95 | 1.44 | 1.02 | 1.02 | 1.2
B5 | 1.8 | 1.35 | 0.77 | 0.97 | 0.97 | 0.93
B6 | 1.48 | 0.88 | 0.29 | 1.03 | 1.08 | 1.08
B7 | 1.51 | 0.81 | 0.39 | 0.99 | 1.16 | 0.93
B8 | 1.69 | 1.08 | 0.54 | 0.96 | 1.02 | 0.98
